Target: FhuA ΔC/Δ5L (E. coli) (UniProt P06971)
Experiment: single-channel electrical recording on planar lipid bilayer

nucleocapsid protein 7 (NCp7) (natural protein)
duration of transient current blockades: < 1 ms

Reference: article PMC4663120
